The target of the assay is full-length human TRPV6 (transient receptor potential vanilloid subfamily member 6) (human). Put plainly: cryo-EM structure.
full-length human TRPV6 (transient receptor potential vanilloid subfamily member 6) (human), sequence (Q9H1D0 whole entry): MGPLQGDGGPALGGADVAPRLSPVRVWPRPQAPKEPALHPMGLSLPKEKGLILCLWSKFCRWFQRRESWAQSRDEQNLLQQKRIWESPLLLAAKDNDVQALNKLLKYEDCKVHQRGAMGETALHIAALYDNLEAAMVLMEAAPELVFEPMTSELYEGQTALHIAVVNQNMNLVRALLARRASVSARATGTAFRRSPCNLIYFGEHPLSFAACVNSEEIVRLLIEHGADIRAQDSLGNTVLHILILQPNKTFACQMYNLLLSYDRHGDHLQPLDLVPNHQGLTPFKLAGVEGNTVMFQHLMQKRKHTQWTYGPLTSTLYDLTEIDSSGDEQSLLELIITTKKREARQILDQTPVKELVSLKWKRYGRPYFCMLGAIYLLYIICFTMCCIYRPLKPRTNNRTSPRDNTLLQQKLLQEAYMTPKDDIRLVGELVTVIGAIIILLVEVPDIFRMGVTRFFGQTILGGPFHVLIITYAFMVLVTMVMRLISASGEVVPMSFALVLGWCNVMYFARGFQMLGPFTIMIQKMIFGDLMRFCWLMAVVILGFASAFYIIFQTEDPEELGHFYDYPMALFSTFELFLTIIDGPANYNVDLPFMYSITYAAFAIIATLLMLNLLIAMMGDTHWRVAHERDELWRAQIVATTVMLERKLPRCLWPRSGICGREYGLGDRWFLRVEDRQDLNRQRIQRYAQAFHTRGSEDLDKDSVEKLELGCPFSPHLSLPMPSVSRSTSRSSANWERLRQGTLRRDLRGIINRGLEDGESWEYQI

The substance “human calmodulin (CaM), recombinant (from UniProt P0DP23 1-149) (natural protein)” showed a stoichiometry N (CaM molecule per hTRPV6 tetramer) of 1.

The values above are taken from paper PMC6093632.
